# Paper PMC3500689
# Key:
# [1] = target: GluA2 flip splice variant (R/G edited) (UniProt P19491)
# [2] = target: GluA2 flop splice variant (UniProt P19491)
# [3] = target: GluA2 flip splice variant (R/G edited) (UniProt P19491); remark: listed apart in the source
# [4] = target: GluA2, native in CA1 pyramidal cells (rat (endogenous in hippocampal slice cultures)) (UniProt P19491)
Substance,"rectification index (g+10 / g-40) of I/V relationships with 100 uM intracellular spermine, HEK293T cells cotransfected at an A1/A2 ratio of 4:1; marker for heteromerization competence [1]",rectification index of patches from HEK293 cells expressing A1i/A2o and γ-8 (threshold by which patches were chosen) [2],rectification index of patches from HEK293 cells expressing A1o/A2i and γ-8 (threshold by which patches were chosen) [3],"percentage block of the peak glutamate current by 100 μM philanthotoxin 74 (selective for A1/A2 heteromers), CA1 patches, control slices, mean [4] [%]","percentage block of the peak glutamate current by 100 μM philanthotoxin 74 (selective for A1/A2 heteromers), CA1 patches, slices after 48 hr TTX, mean [4] [%]"
GluA1 flip splice variant (from UniProt P19490-2 19-907) (receptor),0.1,> 0.7,,,
GluA1 flop splice variant (from UniProt P19490 19-907) (receptor),0.7,,> 0.7,,
"GluA1, native in CA1 pyramidal cells (from UniProt P19490 19-907) (receptor)",,,,95,93.9
